Measurements: patent US20250263490A1 (VIB VZW, published 2025)

T1: F457E
T1 construct: also called human CI-M6PR Dom1-3His6 F457E
T1 chain: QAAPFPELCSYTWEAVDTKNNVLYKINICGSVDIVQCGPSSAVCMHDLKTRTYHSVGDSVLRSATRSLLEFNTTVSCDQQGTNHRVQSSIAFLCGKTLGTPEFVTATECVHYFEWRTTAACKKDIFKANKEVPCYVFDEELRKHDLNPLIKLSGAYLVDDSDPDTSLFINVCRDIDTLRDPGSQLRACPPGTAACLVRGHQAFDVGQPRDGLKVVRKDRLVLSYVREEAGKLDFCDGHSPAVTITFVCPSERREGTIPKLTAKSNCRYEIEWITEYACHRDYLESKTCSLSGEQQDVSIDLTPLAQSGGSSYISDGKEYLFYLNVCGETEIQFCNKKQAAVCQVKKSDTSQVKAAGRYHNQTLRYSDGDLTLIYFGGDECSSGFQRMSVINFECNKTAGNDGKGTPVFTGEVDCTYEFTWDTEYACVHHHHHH

T2: D409F
T2 construct: also called human CI-M6PR Dom1-3His6 D409F
T2 chain: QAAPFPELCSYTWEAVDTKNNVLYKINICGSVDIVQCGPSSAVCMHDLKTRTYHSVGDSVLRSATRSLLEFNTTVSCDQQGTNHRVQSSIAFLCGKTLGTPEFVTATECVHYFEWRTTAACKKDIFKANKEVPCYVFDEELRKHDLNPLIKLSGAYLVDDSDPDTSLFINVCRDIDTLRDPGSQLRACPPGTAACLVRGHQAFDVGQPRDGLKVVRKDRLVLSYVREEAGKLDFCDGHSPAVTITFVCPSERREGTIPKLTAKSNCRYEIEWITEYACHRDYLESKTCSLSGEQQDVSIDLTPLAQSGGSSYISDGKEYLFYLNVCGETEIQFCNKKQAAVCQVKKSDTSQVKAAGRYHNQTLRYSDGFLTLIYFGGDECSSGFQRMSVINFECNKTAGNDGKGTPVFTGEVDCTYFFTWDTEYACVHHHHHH

T3: M85E
T3 construct: also called human CI-M6PR Dom1-3His6 M85E
T3 chain: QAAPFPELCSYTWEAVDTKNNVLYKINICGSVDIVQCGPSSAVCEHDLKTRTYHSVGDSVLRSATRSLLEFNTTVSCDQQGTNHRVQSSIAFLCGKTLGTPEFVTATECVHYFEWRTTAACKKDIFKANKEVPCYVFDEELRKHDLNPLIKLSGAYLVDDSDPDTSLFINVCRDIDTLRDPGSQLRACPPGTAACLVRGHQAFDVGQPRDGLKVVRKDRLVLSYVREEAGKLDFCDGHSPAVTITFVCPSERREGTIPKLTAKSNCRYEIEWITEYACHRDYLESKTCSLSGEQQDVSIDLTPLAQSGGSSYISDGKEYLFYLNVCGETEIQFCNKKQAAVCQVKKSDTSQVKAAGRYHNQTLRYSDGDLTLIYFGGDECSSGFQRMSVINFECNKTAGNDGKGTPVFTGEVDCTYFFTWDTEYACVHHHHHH

T4: D87L
T4 construct: also called human CI-M6PR Dom1-3His6 D87L
T4 chain: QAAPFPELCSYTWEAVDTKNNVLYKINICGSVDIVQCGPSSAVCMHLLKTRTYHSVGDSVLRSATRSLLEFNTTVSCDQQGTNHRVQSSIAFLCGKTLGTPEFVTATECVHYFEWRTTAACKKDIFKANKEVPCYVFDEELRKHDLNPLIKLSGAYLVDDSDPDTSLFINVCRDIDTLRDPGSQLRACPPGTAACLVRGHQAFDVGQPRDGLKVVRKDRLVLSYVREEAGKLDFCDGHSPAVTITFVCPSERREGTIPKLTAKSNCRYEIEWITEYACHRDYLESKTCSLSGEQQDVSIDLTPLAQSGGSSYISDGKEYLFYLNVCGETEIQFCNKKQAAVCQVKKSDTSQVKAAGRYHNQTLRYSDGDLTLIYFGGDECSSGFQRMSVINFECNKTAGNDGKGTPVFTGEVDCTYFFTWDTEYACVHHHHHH

B1: anti-CI-M6PR VHH 1H11 (VHH)
VHH: QVQLQESGGGLVQPGGSLRLSCAASGIIFSDNRMDWYRQAPGKQREWVATLASYGWKTYADSVKDRFTISRDNAKNTVNLYMNSLQPEDTAVYYCNSGQYWGQGTQVTVSS
notes: made in E. coli WK6, His-tag purified
B2: anti-CI-M6PR VHH5 (VHH)
VHH: QVQLQESGGGLVQAGGSLKLSCAAAGRTFSRLAMGWFRQAPGKEREFVAAISENGDSIHYSDSVKGRFAVSRDNAKNTVYLQMNSLKPEDTAIYYCAADRAAYYCSGSGCYPSRAPAAASYDYWGQGTQVTVSS
notes: His6-tagged; made in Pichia pastoris, later also in E. coli WK6
B3: anti-CI-M6PR VHH7 (VHH)
VHH: QVQLQESGGGLVQPGGSLRLSCAASGIIFSDNRMDWYRQAPGKQREWVATLASYGWKTYADSVKGRFTISRDNTKNTVYLRMNSLKPEDTAVYYCKASSPVLNDIWGQGTQVTVSS
notes: His6-tagged (Pichia pastoris)
B4: anti-CI-M6PR VHH8 (VHH)
VHH: QVQLQESGGGLVQAGGSLRLSCEASGRTFNTYNWGWFRQAPGKEREFVAAIRWSSSKTSYADSVKGRFTISRDNAKNTIYLQMNSLKPEDTAVYYCAASIVDFTTNPSHFGSWGQGTQVTVSS
notes: His6-tagged (Pichia pastoris)

Assays:
F457E = target: T1, F457E; test: ELISA on coated antigen (100 ng), anti-VHH-HRP, A450
Method: (§1) To determine the effect of site-directed mutations, an ELISA was performed. To this end, 100 ng of each successfully purified mutant was coated per well on Nunc Maxisorp plates in 50 mM MES, 150 mM NaCl, pH 6.5 buffer overnight at 4° C. […] Coating-only controls were included for background correction. […] Reactions were stopped after five minutes using a 2N H₂SO₄ solution and plates were read at 450 nm, with a 655 nm background correction. Data were analyzed using the GraphPad Prism 9 software.

D409F = target: T2, D409F; test: as above
Method: as §1

M85E = target: T3, M85E; test: as above
Method: as §1

D87L = target: T4, D87L; test: as above
Method: as §1

[1] = target: T5, human cation-independent mannose-6-phosphate receptor, native, on cells (human, UniProt P11717 41-2491); test: flow cytometry, FLAG3-His6 VHH on HEK293T cells
T5 construct: whole, on cells; also called native CI-M6PR; cell-surface hCI-M6PR
Source text: Synthetic DNA fragments encoding VHHs were ordered (IDT, Leuven, Belgium) and subcloned into an E. coli expression vector under control of an IPTG-inducible lac promoter, in frame with N-terminal PelB signal peptide (which directs the recombinant proteins to the periplasmic compartment) and C-terminal FLAG3 and His6 tags. […] VHH proteins were purified from these clones by means of IMAC chromatography followed by desalting according to well established procedures¹⁰⁶. Cells used herein were recovered using cell dissociation non-enzymatic solution (Sigma Aldrich, cat. #C5914-100ML) and resuspended to a final concentration of 1,000,000 cells/mL in FACS buffer. Cells were incubated with different concentrations of purified FLAG3-tagged VHHs for 30 minutes on ice with shaking, followed by washing and incubation with mouse M2 anti-Flag mAb (Sigma Aldrich, cat. #F-1804) in FACS buffer for 30 min on ice with shaking, followed again by washing. […] Flow cytometry and analysis were done on an Attune NxT Flow Cytometer (Thermo Fisher Scientific).
Moreover, cross-reactivity to mouse CI-M6PR was analyzed, in view of the amino acid homology between mouse and human being overall about 80% identity, but for domain 1-3 of CI-M6PR just about 75% identity.

Binder | EC50 (read off the curve) (F457E) [nM] | EC50 (read off the curve) (D409F) [nM] | EC50 (read off the curve) (M85E) [nM] | EC50 (read off the curve) (D87L) [nM] | EC50 [1] [nM]
B1 | ~0.4 | ~0.4 | – | – | –
B2 | – | ~4 | ~2 | ~2 | –
B3 | – | – | – | – | 20
B4 | ~10 | ~5 | ~3 | ~4 | 0.8
